Several values for one entry are separate records, joined by “and”; a condition that tells them apart may be missing. Equal entries are not always repeated. Where two headings read alike, the source gives them in different places. Values belong to the binder of their own block, whether it stands above or below them.
Columns and labels:
CD80 = molecular target: T1, CD80 (human, UniProt P33681); assay: ELISA
T1 chain: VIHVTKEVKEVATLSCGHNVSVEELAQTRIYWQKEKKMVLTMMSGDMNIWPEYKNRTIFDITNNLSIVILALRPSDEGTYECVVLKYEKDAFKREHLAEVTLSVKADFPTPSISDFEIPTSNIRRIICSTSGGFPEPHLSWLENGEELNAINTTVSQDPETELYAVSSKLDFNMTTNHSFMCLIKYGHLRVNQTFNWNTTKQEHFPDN

NRP1 [1] = molecular target: T2, NRP1 (human, UniProt O14786); assay: SPR
NRP1 [2] = molecular target: T2, NRP1; assay: ELISA
RON [3] = molecular target: T3, RON (human, UniProt Q04912); assay: ELISA
RON [4] = molecular target: T3, RON; assay: ELISA; remark: listed apart in the source
RON [5] = molecular target: T3, RON; assay: SPR
DLL4 [6] = molecular target: T4, DLL4 (human, UniProt Q9NR61); assay: competition
T4 sequence (Q9NR61 27-524): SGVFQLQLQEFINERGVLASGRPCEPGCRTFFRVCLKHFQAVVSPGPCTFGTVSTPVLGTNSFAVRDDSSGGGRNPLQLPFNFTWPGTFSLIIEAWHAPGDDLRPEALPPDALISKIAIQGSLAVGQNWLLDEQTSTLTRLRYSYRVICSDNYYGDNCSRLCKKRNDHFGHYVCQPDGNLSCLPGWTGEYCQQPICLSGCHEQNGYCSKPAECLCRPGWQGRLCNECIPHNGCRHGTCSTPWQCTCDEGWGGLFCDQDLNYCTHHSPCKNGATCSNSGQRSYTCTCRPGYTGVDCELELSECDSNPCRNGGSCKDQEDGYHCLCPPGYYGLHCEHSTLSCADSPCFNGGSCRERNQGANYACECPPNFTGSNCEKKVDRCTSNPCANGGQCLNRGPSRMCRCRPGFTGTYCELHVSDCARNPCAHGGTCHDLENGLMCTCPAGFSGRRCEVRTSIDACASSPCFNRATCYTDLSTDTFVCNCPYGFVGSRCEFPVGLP

DLL4 [7] = molecular target: T4, DLL4; assay: ELISA
DLL4 [8] = molecular target: T4, DLL4; assay: SPR
DLL4 [9] = molecular target: T4, DLL4; assay: ELISA; remark: listed apart in the source
DLL4 [10] = molecular target: T4, DLL4; assay: ELISA; remark: listed apart in the source
IGF1 [11] = molecular target: T5, IGF1 (human, UniProt P05019); assay: ELISA
IGF1 [12] = molecular target: T5, IGF1; assay: ELISA; remark: listed apart in the source
IGF2 [13] = molecular target: T6, IGF2 (human, UniProt P01344); assay: SPR
IGF1 [14] = molecular target: T5, IGF1; assay: SPR
IGF2 [15] = molecular target: T6, IGF2; assay: ELISA
IGF2 [16] = molecular target: T6, IGF2; assay: ELISA; remark: listed apart in the source

EC50 (CD80): 0.77 nM
B1: AB007 (antibody, V domains shown)
VH: QVQLQESGPGLVKPSETLSLTCAVSGGSISGGYGWGWIRQPPGKGLEWIGSFYSSSGNTYYNPSLKSQVTISTDTSKNQFSLKLNSMTAADTAVYYCVRDRLFSVVGMVYNNWFDVWGPGVLVTVSS
VL: ESALTQPPSVSGAPGQKVTISCTGSTSNIGGYDLHWYQQLPGTAPKLLIYDINKRPSGISDRFSGSKSGTAASLAITGLQTEDEADYYCQSYDSSLNAQVFGGGTRLTVLG

Kd (NRP1 [1]): 2.67 nM
EC50 (NRP1 [2]): 0.58 nM
B2: AB016 (antibody, V domains shown)
VH: EVQLVESGGGLVQPGGSLRLSCAASGFSFSSEPISWVRQAPGKGLEWVSSITGKNGYTYYADSVKGRFTISADTSKNTAYLQMNSLRAEDTAVYYCARWGKKVYGMDVWGQGTLVTVSS
VL: DIQMTQSPSSLSASVGDRVTITCRASQSISSYLAWYQQKPGKAPKLLIYGASSRASGVPSRFSGSGSGTDFTLTISSLQPEDFATYYCQQYMSVPITFGQGTKVEIKR

Kd (NRP1 [1]): 1.44 nM
EC50 (NRP1 [2]): 0.46 nM
B3: DVD050 NRP1 arm (antibody, V domains shown)
VH: B2 VH
VL: B2 VL
modifications: DVD-Ig outer

Kd (NRP1 [1]): 1.28 nM
EC50 (NRP1 [2]): 0.5 nM
B4: DVD049 NRP1 arm (antibody, V domains shown)
VH: B2 VH
VL: B2 VL
modifications: DVD-Ig inner

EC50 (RON [3]): 0.26 nM and 0.21 nM
EC50 (RON [4]): 1.6 nM and 0.7 nM and 1.3 nM
Kd (RON [5]): 20.2 nM and 20.1 nM
B5: AB005 (antibody, V domains shown)
VH: EVQLVQSGGGLVKPGGSLRLSCAASGFTFSSYAMHWVRQAPGKGLEWVAVISYDGSNKYYADSVKGRFTISRDNSKNTLYLQMNSLRAEDTAVYYCARFSGWPNNYYYYGMDVWGQGTTVTVSS
VL: DVVMTQSPLSLPVTPGEPASISCRSSQSLLHSNGFNYVDWYLQKPGQSPHLLIYFGSYRASGVPDRFSGSGSGTDFTLKISRVEAEDVGVYYCMQALQTPPWTFGQGTKVEIRR

IC50 (DLL4 [6]): 0.37 nM and 0.4 nM
EC50 (DLL4 [7]): 0.03 nM
Kd (DLL4 [8]): 0.414 nM
EC50 (DLL4 [9]): 0.31 nM
B6: AB015 (antibody)
chain 1: EVQLVESGGGLVQPGGSLRLSCAASGFTFTDNWISWVRQAPGKGLEWVGYISPNSGFTYYADSVKGRFTISADTSKNTAYLQMNSLRAEDTAVYYCARDNFGGYFDYWGQGTLVTVSS
chain 2: DIQMTQSPSSLSASVGDRVTITCRASQDVSTAVAWYQQKPGKAPKLLIYSASFLYSGVPSRFSGSGSGTDFTLTISSLQPEDFATTYYCQQSYTGTVTFGQGTKVEIKR

IC50 (DLL4 [6]): 0.5 nM
EC50 (DLL4 [7]): 0.06 nM
EC50 (DLL4 [10]): 0.25 nM
Kd (DLL4 [8]): 0.347 nM
EC50 (DLL4 [9]): 0.53 nM
B7: DVD044 DLL4 arm (antibody)
chain 1: B6 chain 1
chain 2: B6 chain 2
modifications: DVD-Ig outer

IC50 (DLL4 [6]): 13.1 nM
EC50 (DLL4 [7]): 0.5 nM
EC50 (DLL4 [10]): 0.67 nM
Kd (DLL4 [8]): 2.32 nM
EC50 (DLL4 [9]): 2.12 nM
B8: DVD043 DLL4 arm (antibody)
chain 1: B6 chain 1
chain 2: B6 chain 2
modifications: DVD-Ig inner

EC50 (IGF1 [11]): 229 nM
EC50 (IGF1 [12]): 229 nM
Kd (IGF2 [13]): 0.302 nM
Kd (IGF1 [14]): 6.36 nM
EC50 (IGF2 [15]): 206 nM
EC50 (IGF2 [16]): 206 nM
B9: DVD029 IGF1,2 arm (antibody, V domains shown)
VH: QVQLVQSGAEVKKPGASVKVSCKASGYTFTSYDINWVRQATGQGLEWMGWMNPNSGNTGYAQKFQGRVTMTRNTSISTAYMELSSLRSEDTAVYYCARDPYYYYYGMDVWGQGTTVTVSS
VL: QSVLTQPPSVSAAPGQKVTISCSGSSSNIENNHVSWYQQLPGTAPKLLIYDNNKRPSGIPDRFSGSKSGTSATLGITGLQTGDEADYYCETWDTSLSAGRVFGGGTKLTVLG
modifications: DVD-Ig inner

Reference: patent publication US9029508 (dated 2015)
